This data set deals with CD71 (transferrin receptor), used in ELISA (UniProt P02786 89-760). In words: ELISA.
CD71 (transferrin receptor), used in ELISA, sequence (P02786 89-760): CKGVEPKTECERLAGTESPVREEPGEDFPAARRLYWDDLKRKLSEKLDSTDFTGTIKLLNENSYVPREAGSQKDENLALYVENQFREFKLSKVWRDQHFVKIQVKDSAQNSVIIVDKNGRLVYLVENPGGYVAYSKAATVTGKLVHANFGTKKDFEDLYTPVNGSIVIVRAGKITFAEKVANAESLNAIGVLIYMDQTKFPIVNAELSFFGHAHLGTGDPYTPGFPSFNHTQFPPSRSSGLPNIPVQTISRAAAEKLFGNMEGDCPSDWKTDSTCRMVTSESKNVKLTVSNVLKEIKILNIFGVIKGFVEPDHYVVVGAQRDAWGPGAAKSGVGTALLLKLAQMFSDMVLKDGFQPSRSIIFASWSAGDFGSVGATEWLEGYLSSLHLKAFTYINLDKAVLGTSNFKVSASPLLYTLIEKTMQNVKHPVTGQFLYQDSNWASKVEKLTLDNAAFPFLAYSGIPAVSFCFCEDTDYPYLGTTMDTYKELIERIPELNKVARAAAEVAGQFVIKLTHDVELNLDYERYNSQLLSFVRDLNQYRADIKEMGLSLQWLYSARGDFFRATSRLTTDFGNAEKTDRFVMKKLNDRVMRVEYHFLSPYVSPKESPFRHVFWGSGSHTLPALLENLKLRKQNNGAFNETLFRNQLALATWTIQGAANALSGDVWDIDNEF

B1: XQ-2d (ssDNA)
DNA: ACTCATAGGGTTAGGGGCTGCTGGCCAGATACTCAGATGGTAGGGTTACTATGAGC
In the case of B1, the Kd is 50.5 ± 27.3 nM.

These data come from publication PMC6625514.
